B1: GST-yNpl4 T571A (natural protein, Saccharomyces cerevisiae, UniProt P33755 1-580, looked up)
chain: MLIRFRSKNGTHRVSCQENDLFGTVIEKLVGNLDPNADVDTFTVCEKPGQGIHAVSELADRTVMDLGLKHGDMLILNYSDKPANEKDGVNVEIGSVGIDSKGIRQHRYGPLRIKELAVDEELEKEDGLIPRQKSKLCKHGDRGMCEYCSPLPPWDKEYHEKNKIKHISFHSYLKKLNENANKKENGSSYISPLSEPDFRINKRCHNGHEPWPRGICSKCQPSAITLQQQEFRMVDHVEFQKSEIINEFIQAWRYTGMQRFGYMYGSYSKYDNTPLGIKAVVEAIYEPPQHDEQDGLTMDVEQVKNEMLQIDRQAQEMGLSRIGLIFTDLSDAGAGDGSVFCKRHKDSFFLSSLEVIMAARHQTRHPNVSKYSEQGFFSSKFVTCVISGNLEGEIDISSYQVSTEAEALVTADMISGSTFPSMAYINDTTDERYVPEIFYMKSNEYGITVKENAKPAFPVDYLLVTLTHGFPNTDTETNSKFVSSTGFPWSNRQAMGQSQDYQELKKYLFNVASSGDFNLLHEKISNFHLLLYINSLQILSPDEWKLLIESAVKNEWEESLLKLVSSAGWQALVMILQESG
notes: Npl4 of Saccharomyces cerevisiae (yNpl4), full length; source: E. coli Rosetta (DE3) (pGEX-6P1), purified (Glutathione Sepharose FF, Resource Q); not shown: GST, N-terminal, kept
B2: GST-yNpl4 M574A (natural protein, Saccharomyces cerevisiae, UniProt P33755 1-580, looked up)
chain: B1 chain with A571T, M574A
notes: as for B1
B3: GST-yNpl4 S498R (natural protein, Saccharomyces cerevisiae, UniProt P33755 1-580, looked up)
chain: B1 chain with S498R, A571T
notes: as for B1
B4: GST-yNpl4 M574Q (natural protein, Saccharomyces cerevisiae, UniProt P33755 1-580, looked up)
chain: B1 chain with A571T, M574Q
notes: as for B1
B5: GST-yNpl4 I575A (natural protein, Saccharomyces cerevisiae, UniProt P33755 1-580, looked up)
chain: B1 chain with A571T, I575A
notes: as for B1
B6: GST-yNpl4 A494F (natural protein, Saccharomyces cerevisiae, UniProt P33755 1-580, looked up)
chain: B1 chain with A494F, A571T
notes: as for B1
B7: His6-yNpl4^113–580 T571A (domain or fragment, Saccharomyces cerevisiae, UniProt P33755 113-580, looked up)
chain: IKELAVDEELEKEDGLIPRQKSKLCKHGDRGMCEYCSPLPPWDKEYHEKNKIKHISFHSYLKKLNENANKKENGSSYISPLSEPDFRINKRCHNGHEPWPRGICSKCQPSAITLQQQEFRMVDHVEFQKSEIINEFIQAWRYTGMQRFGYMYGSYSKYDNTPLGIKAVVEAIYEPPQHDEQDGLTMDVEQVKNEMLQIDRQAQEMGLSRIGLIFTDLSDAGAGDGSVFCKRHKDSFFLSSLEVIMAARHQTRHPNVSKYSEQGFFSSKFVTCVISGNLEGEIDISSYQVSTEAEALVTADMISGSTFPSMAYINDTTDERYVPEIFYMKSNEYGITVKENAKPAFPVDYLLVTLTHGFPNTDTETNSKFVSSTGFPWSNRQAMGQSQDYQELKKYLFNVASSGDFNLLHEKISNFHLLLYINSLQILSPDEWKLLIESAVKNEWEESLLKLVSSAGWQALVMILQESG
notes: source: E. coli Rosetta (DE3), purified (Ni-NTA, Resource Q); not shown: His6, N-terminal, kept
B8: His6-yNpl4^113–580 M574A (domain or fragment, Saccharomyces cerevisiae, UniProt P33755 113-580, looked up)
chain: B7 chain with A459T, M462A
notes: as for B7
B9: yUfd1–His6-yNpl4^113–580 complex (complex, Saccharomyces cerevisiae)
chain 1: MFSGFSSFGGGNGFVNMPQTFEEFFRCYPIAMMNDRIRKDDANFGGKIFLPPSALSKLSMLNIRYPMLFKLTANETGRVTHGGVLEFIAEEGRVYLPQWMMETLGIQPGSLLQISSTDVPLGQFVKLEPQSVDFLDISDPKAVLENVLRNFSTLTVDDVIEISYNGKTFKIKILEVKPESSSKSICVIETDLVTDFAPPVGYVEPDYKALKAQQDKEKKNSFGKGQVLDPSVLGQGSMSTRIDYAGIANSSRNKLSKFVGQGQNISGKAPKAEPKQDIKDMKITFDGEPAKLDLPEGQLFFGFPMVLPKEDEESAAGSKSSEQNFQGQGISLRKSNKRKTKSDHDSSKSKAPKSPEVIEID
chain 2: B7 chain with A459T
notes: Ufd1 of Saccharomyces cerevisiae (yUfd1), full-length gene in pGEX-6P1; also called yUfd1–yNpl4; not shown: GST, N-terminal, cleaved; His6, N-terminal, kept
B10: His6-yNpl4^113–580 S498L (domain or fragment, Saccharomyces cerevisiae, UniProt P33755 113-580, looked up)
chain: B7 chain with S386L, A459T
notes: as for B7
B11: His6-yNpl4^113–580 M574Q (domain or fragment, Saccharomyces cerevisiae, UniProt P33755 113-580, looked up)
chain: B7 chain with A459T, M462Q
notes: as for B7
B12: His6-yNpl4^113–580 I575A (domain or fragment, Saccharomyces cerevisiae, UniProt P33755 113-580, looked up)
chain: B7 chain with A459T, I463A
notes: as for B7

Where a chain is given by its changes, count along the chain named.

One assay deals with T1, Cdc48 (recombinant, hexameric) (Saccharomyces cerevisiae, UniProt P25694 1-835).
T1 construct: Cdc48 AAA-family ATPase of Saccharomyces cerevisiae; source: E. coli Rosetta (DE3) (pET21a), purified (TALON resin, Superose 6)
T1 sequence (P25694 whole entry): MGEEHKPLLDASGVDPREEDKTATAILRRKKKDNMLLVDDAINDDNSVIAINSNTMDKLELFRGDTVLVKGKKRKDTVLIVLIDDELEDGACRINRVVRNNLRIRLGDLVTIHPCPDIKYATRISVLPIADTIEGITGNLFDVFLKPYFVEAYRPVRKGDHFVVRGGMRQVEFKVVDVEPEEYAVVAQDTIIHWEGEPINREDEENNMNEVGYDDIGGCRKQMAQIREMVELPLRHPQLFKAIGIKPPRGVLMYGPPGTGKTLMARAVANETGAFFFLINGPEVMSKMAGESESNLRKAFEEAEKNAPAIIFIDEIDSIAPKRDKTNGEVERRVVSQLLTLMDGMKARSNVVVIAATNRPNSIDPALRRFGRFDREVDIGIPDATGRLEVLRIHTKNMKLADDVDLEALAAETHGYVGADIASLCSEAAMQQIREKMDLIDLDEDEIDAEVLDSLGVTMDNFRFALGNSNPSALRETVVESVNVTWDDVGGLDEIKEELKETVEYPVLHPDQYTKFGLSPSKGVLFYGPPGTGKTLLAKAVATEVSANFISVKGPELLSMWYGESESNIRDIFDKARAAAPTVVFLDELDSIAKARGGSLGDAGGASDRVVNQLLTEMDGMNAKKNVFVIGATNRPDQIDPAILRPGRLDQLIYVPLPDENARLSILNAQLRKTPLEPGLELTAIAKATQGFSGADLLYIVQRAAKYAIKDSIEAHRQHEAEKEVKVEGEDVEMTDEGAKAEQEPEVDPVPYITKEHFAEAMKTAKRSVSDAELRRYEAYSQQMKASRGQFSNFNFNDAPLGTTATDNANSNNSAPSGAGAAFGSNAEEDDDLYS
Description: pull-down; GST-yNpl4 (0.5 μM, wild type or mutant) on Glutathione Sepharose 4B beads, 1 h at room temperature with 0.5 μM yUfd1, 3 μM Cdc48 (0.5 μM hexamer) and 1 μg K48 chains in 100 μL 50 mM Tris-HCl pH 7.5, 100 mM NaCl, 10% glycerol, 0.1% Triton X-100; chains detected by anti-Ub immunoblot, proteins by Ponceau S. The settings on record: both partners purified.
In the case of B1, the binding result was “binds”.

B2: the binding result is on record as “binds”.

Take B3: the binding result is reported as “binds”.

On to B4, for which the binding result is “binds”.

On to B5, for which the binding result was “binds”.

For the molecule B6, the binding result is “binds”.

The target in the next assay is T2, M1-Ub4 (UniProt P0CG48 1-76; P0CG48 1-76; P0CG48 1-76; P0CG48 1-76).
T2 construct: ubiquitin (Ub), first unit; ubiquitin (Ub), second unit; ubiquitin (Ub), third unit; ubiquitin (Ub), fourth unit
T2 sequence (P0CG48 1-304, one chain of several): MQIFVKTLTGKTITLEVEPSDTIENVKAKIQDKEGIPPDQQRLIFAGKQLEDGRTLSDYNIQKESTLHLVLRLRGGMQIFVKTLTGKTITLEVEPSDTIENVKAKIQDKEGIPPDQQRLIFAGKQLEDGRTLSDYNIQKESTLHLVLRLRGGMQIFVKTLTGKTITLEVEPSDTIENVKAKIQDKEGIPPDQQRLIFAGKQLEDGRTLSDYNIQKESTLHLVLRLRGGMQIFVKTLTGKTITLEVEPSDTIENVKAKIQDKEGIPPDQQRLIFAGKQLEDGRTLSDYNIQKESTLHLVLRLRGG
Nature of the assay: SPR; Biacore T200, 25 °C; wild-type or mutant His6-yNpl4^113–580, yUfd1–His6-yNpl4^113–580 or His6-hNpl4 immobilized on a CM5 chip by amine coupling; Ub2 or Ub4 in two-fold dilution series injected 60 s at 10 μL per min in 10 mM HEPES-NaOH pH 7.5, 150 mM NaCl, 0.05% Tween-20, 0.5 g/L BSA; equilibrium Kd. The settings on record: both partners purified.
Take B7: the Kd came out at 923 µM.

B8 yielded a dissociation constant Kd of 291 µM.

B9: the equilibrium dissociation constant (Kd) was 151 µM.

Consider B10, for which the Kd was 101 µM.

Turning to B11, the dissociation constant (Kd) was 634 µM.

For B12, the affinity, expressed as Kd, was 837 µM.

Usually Kd stands for the equilibrium constant for the complex coming apart.
